We go through two molecules from paper PMC9258321 (2022).

Assay [1] addresses Kelch domain of Keap1. Put plainly: SPR.
The target of assay [2] is Kelch domain of Keap1. Put plainly: SPR. The source holds these as a separate data set. On the technique in general: SPR reads the build-up and loss of mass on a sensor chip optically.

Read-outs that look alike come from different tables or passages of the source. Ends that are not written are not given here.

Chain of Kelch domain of Keap1 (chain, as listed by the source): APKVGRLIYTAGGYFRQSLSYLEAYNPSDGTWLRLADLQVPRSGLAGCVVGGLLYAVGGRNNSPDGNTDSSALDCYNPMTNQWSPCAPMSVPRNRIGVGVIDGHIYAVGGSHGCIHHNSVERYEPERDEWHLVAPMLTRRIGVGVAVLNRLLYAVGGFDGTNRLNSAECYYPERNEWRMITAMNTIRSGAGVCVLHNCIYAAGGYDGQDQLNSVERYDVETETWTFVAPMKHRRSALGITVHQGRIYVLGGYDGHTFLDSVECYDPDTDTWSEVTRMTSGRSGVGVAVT

B1: drp3, minor oxidized product (peptide)
chain: GCPPCASGCSPETGEFCWREDDCPPC
modifications: disulfide (positions not given here); also: oxidized (disulfides), pairing of this isomer not given here
In the assay with Kelch domain of Keap1 [1], B1 returned a dissociation constant (Kd) of 415 nM. GCPPCASGCSPETGEFCWREDDCPPC (disulfide (positions not given here); not fully specified) [drp3-a] displayed a Kd with Kelch domain of Keap1 [2] of 277 nM.

In general, Kd refers to the equilibrium constant for the complex coming apart.
